# Source: the supplement of paper PMC10567573
# ± gives the standard deviation.
# Assay: protein stability index of a GFP-peptide fusion (GPS, HEK-293T) (PSI 1-6); higher = more stable
# [1] = treatment: DMSO, c terminus: a fixed tail appended
# [2] = treatment: MLN4924 1 uM, 8 h, c terminus: a fixed tail appended
# [3] = treatment: DMSO, c terminus: native
# [4] = treatment: MLN4924 1 uM, 8 h, c terminus: native
# 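Also: 24-mer peptide tiles fused after GFP, lentivirally expressed, FACS-sorted into six equal bins by GFP/DsRed ratio, decoded by Illumina sequencing, PSI is the read-weighted mean bin number.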
Sequence,protein stability index [1],protein stability index [2],protein stability index [3],protein stability index [4]
TLEQILEHLDNLRLNLTNTKQNFF [INTS3],2.23 ± 0.54,2.31 ± 0.11,,
PMVLMIIVMCVQIKCFHEIITIGY [CDS2],3.01 ± 0.43,3.14 ± 0.66,,
NTVKVQVLYPDGQAQMIHPKPADF [INTS4],3.05 ± 0.48,3.08 ± 0.27,,
LIFGLITCLTGVLGVGLGVEISRR [SPNS1],2.66 ± 0.23,3.13 ± 0.46,,
EDSILGDPKKLLTQHFVQENYLEY [MAGEA3],3.75 ± 0.36,3.79 ± 0.28,,
HVAGEQMLEDGPHNANRGQRLLAF [CCDC70],4.07 ± 0.25,4.04 ± 0.24,,
ARGRHVGSSETNLLQHLLEACGRC [PYCR3],2.71 ± 0.88,3.17 ± 1.4,,
LMISENNFLFRNAASTLTERPCYN [ANKRD40],2.16 ± 0.31,2.36 ± 0.27,,
VGVRMRDVKCYQGTDIVRGCDPLV [ADAMTSL2],3.01 ± 0.29,3.09 ± 0.45,,
EKYKPFSQVPTGEVFYYSCEYNFV [CFHR2],2.78 ± 1.5,,,
FGYRPYDKNISPRENILVSLGAVG [SCD],2.03 ± 0.44,2.75 ± 0.53,,
TFHDSKHNIVHVHFDATRGWLLTS [WDFY2],2.44 ± 0.31,2.17 ± 0.13,,
SACSFTNSDMQILTASGDGTCALW [GNB5],2.33 ± 0.27,2.15 ± 0.22,,
DLVPAALGSLTTAQIARSVWRPW [HES6],,,2.09 ± 0.17,2.32 ± 0.43
VNHRIYYKGHIPEKLETFVSLHR [FEM1C],,,2.24 ± 0.17,2.305 ± 0.015
VARTHLTEDTPKVNADIEKVNQNQ [NSDHL],5.08 ± 0.22,5.06 ± 0.11,,
SAPYSAAFLELPHGSGGSGYPAAP [TBX6],3.27 ± 0.15,3.55 ± 0.27,,
FQKTKNLLTGETEADPEMIKRAED [CLPTM1],5.01 ± 0.42,5.31 ± 0.17,,
WKIAPAMAAGNTVIAKPSELTSVT [ALDH8A1],3.12 ± 0.41,3.17 ± 0.53,,
TVPADGYILELDDGNGGQFREVYV [TRIM9],2.15 ± 0.24,2.2 ± 0.6,,
MNHYKKTTLEIHNTEERQKRQVTH [PTPN9],4.52 ± 0.06,4.49 ± 0.36,,
QLQDFNIPQAGGWGPWGPWGDCSR [ADAMTS4],2.56 ± 0.59,3 ± 0.8,,
RVKFKSQQHRQGRSHHLEMVIQLL [PTGFR],2.44 ± 0.19,2.21 ± 0.17,,

Sequence,protein stability index [1],protein stability index [2],protein stability index [3],protein stability index [4]
FAESLQCKVDCEANLTPNVGGYFV [P3H4],2.22 ± 0.9,2.42 ± 0.65,,
NQYLYFLFAPTLIYRDSYPRNPTV [SOAT1],3.26 ± 0.69,2.57 ± 0.62,,
FSKASDSLQLVFGIELMEVDPIGH [MAGEA6],2.27 ± 0.56,2.42 ± 0.41,,
IAVAWIYGTKKFMQELTEMLGFRP [SLC6A17],2.62 ± 0.78,2.1 ± 0.61,,
ESLQELRLLLAGAEVQAKLENAEV [HES6],2.84 ± 0.41,3.15 ± 0.4,,
VEPGTPPLDILAQPLEASNPALEG [DNAAF3],5.35 ± 0.14,5.36 ± 0.21,,
RKKRLLDRKVLLKSDSPTGDVLLD [GOLPH3L],4.22 ± 0.14,4.14 ± 0.19,,
FLELAVGQRIRRGSIGVWHYICPR [SLC6A17],2.99 ± 0.97,2.18 ± 0.5,,
AEVSVISEADPQALLQAMKDLDGM [FBF1],4.52 ± 0.19,4.36 ± 0.2,,
KFDHIEVRDGPFGFSPIIGRFCGQ [NETO1],2.3 ± 0.28,2.44 ± 0.34,,
PFDMDSCLSRHSINPYSNRESRIL [DFFB],3.24 ± 0.29,3.22 ± 0.29,,
MPTQEVQELPIPSKLLEFLSYRI [WSB1],,,2.82 ± 0.2,3.05 ± 0.12
TLIPTCKFYTWLWGVFYYFVSALG [SCD],2 ± 0.52,2.13 ± 0.15,,
TLPLTLIVILENIAVAWIYGTKKF [SLC6A17],3.03 ± 0.34,3.35 ± 0.43,,
SEHFKTTSQKVARKFWWKNVKMIV [VAMP8],2.69 ± 0.24,2.61 ± 0.71,,
EAIKNEMNVMLKSSPVDLVTATDQ [IMPA1],4.21 ± 0.11,4.67 ± 0.17,,
FATPEREMRISESAASGARFPLDS [PCDHGC5],4.44 ± 0.11,4.57 ± 0.3,,
FEREPSTSDLGTTDVQKKKLVDAI [RIPK4],4.62 ± 0.084,4.87 ± 0.29,,
ARRESGGRPIKPPKKDLEDGEVPQ [BRD3],5.58 ± 0.21,5.38 ± 0.32,,
GEQEFEALMRMLDNLGYRTGYPYR [ADD1],2.15 ± 0.3,2.26 ± 0.49,,
HHPENGEETVTMLEDVERELDGPK [ZNF396],5.51 ± 0.13,5.49 ± 0.15,,
SSGPGNSQNSFLVQEVMEEEWNAL [RPAIN],4.88 ± 0.2,4.92 ± 0.25,,
